# Measured values taken from patent US20240209095A1 (published 2024).
# B1: mouse-human chimera 3C3 MM (antibody, V domains shown)
# VH: EVQLQESGPGLTKPSQTLSLTCSVTGYSITSDYWDWIRKFPGNKLEYMGYISYTGSTYYNPSLRSRISITRDTSKNQYYLQLSSVTSEDSATYYCARRGGWLSPFVYWGQGTLVTVSA
# VL: DTVMSQSPSSLGVSVGERVTLTCKSRQSLLFSSNQKNSLAWYQQKPGQSPKLLIYWASTRESGVPDRFTGSGSGTDFTLTISSVKSEDLAVYYCQQYYTYPFTFGAGTSLELK
# Molecular target: PDL1-hFc (UniProt Q9NZQ7 19-238)
# Experiment: ELISA
# Sequence of PDL1-hFc (Q9NZQ7 19-238): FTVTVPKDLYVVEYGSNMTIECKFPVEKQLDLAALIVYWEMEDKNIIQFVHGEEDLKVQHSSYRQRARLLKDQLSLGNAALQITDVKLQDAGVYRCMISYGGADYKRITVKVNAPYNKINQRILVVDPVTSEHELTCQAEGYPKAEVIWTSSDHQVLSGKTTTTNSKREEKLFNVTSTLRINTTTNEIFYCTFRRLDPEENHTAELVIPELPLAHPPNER
binder,measurement,value
B1,Kd,0.0666 nM
